# Assay results published in patent publication US20190077844A1 (published 2019).
# Assays:
# [1] = target: T1, Recombinant human glypican-3 (aa 1-559), His-tagged (R&D Systems) (human, UniProt P51654 25-559); test: SPR 1-point off-rate, ratio to parental ADX_6077_F02
# T1 construct: also called huGPC3; human GPC3
# Protocol: (§1) Surface plasmon resonance (SPR) was performed to calculate off-rates (kd) and binding affinities of α-GPC3 adnectins and tubulysin-conjugated AdxDCs using a Biacore T100 instrument (GE Healthcare). […] SPR experiments were conducted at 37° C. using HBS-P+(10 mM HEPES, 150 mM NaCl, 0.05% (v/v) Surfactant P20, pH 7.4) running buffer (GE Healthcare). […] For off-rate measurements, single 200 nM adnectin/AdxDC concentrations were injected using identical conditions. One 30s injection of 10 mM glycine pH 1.7 was used to remove bound adnectin and regenerate the GPC₃ surfaces between assay cycles.
# (§2) Rate constants kₐ (kₒₙ) and kd (koff) were derived from reference-subtracted sensorgrams fit to a 1:1 binding model in Biacore T100 Evaluation Software v2.0.4 (GE Healthcare). The affinity constant, KD was calculated from the ratio of rate constants kd/kₐ.
# (§3) One-hundred to one-hundred-fifty milligrams of each of the eight mutants was made, purified and alkylated as previously above. Three to five milligrams of each of eight alkylated variants at 1-3 mg/mL were subjected to SEC, DSC, GPC3 binding (SPR 1 pt off-rates), MS and HIC.
# [2] = target: T2, Recombinant murine glypican-3 (aa 25-557) (R&D Systems) (murine, UniProt Q8CFZ4 25-557); test: as above
# T2 construct: also called muGPC3; murine GPC3
# Protocol: as §1, §2, §3
# [3] = target: T3, Human glypican-3 on cells (Huh7, Hep3B, H446, HepG2; Hep3B xenograft tissue) (human, UniProt P51654 25-554); test: flow cytometry on Huh7 cells, EC50 ratio to parent Adnectin
# T3 construct: Endogenous GPC3 of human tumor cell lines; also called huGPC3 on cells; GPC3 receptor
# Protocol: The binding of DG variants to huGPC3 in DG GPC3 AdxDCs mutants were evaluated by flow cytometry for binding to Huh7 carcinoma cells grown in DMEM media with 10% FBS. Cells were harvested using Versene, an EDTA cell dissociation solution from Lonza, Cat. #17-711E. Tumor cells (1E5 cells/reaction) were suspended in FACS buffer (PBS, 1% BSA, 0.05% Na Azide) and mixed with a serial dilution of AdxDC for one hour on ice. Cells were washed three times with FACS buffer, and bound AdxDC was detected with an in house anti-scaffold monoclonal Ab and PE-conjugated Antibody from (RnD Systems), cat#NL007, and read on a flow cytometer.
# T3 sequence (P51654 25-554 limits assumed): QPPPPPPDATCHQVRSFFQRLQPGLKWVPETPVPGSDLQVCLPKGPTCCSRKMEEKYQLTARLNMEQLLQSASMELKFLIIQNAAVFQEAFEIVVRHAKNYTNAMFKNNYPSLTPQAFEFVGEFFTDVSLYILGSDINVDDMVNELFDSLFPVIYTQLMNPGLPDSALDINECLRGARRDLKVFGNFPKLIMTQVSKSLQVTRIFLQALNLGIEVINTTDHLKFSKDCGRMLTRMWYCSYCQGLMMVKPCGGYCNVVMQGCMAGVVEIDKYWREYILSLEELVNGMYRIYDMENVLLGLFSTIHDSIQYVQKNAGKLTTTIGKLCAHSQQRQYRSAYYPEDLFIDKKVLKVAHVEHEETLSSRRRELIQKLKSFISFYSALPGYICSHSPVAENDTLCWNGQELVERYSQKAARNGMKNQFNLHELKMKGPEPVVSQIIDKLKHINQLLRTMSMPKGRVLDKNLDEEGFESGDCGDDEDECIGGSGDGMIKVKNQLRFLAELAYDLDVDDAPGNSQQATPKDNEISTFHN
# T1 sequence (P51654 other isoform, or with tags, fused parts or gaps): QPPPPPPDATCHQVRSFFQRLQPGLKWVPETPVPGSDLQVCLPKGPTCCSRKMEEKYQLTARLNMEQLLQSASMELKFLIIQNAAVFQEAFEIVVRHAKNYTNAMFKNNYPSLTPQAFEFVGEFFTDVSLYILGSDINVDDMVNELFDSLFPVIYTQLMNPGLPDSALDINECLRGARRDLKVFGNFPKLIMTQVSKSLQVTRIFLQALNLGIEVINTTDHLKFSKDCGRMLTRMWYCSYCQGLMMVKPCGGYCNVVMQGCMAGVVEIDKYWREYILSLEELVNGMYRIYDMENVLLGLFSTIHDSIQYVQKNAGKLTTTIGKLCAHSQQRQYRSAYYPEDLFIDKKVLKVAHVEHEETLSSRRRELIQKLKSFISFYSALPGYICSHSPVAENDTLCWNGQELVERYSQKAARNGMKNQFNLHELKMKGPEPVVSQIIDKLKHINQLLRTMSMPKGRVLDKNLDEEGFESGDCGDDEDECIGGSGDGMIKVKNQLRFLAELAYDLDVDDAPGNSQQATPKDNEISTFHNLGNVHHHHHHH
# T2 sequence (Q8CFZ4 25-557 limits assumed, form in doubt): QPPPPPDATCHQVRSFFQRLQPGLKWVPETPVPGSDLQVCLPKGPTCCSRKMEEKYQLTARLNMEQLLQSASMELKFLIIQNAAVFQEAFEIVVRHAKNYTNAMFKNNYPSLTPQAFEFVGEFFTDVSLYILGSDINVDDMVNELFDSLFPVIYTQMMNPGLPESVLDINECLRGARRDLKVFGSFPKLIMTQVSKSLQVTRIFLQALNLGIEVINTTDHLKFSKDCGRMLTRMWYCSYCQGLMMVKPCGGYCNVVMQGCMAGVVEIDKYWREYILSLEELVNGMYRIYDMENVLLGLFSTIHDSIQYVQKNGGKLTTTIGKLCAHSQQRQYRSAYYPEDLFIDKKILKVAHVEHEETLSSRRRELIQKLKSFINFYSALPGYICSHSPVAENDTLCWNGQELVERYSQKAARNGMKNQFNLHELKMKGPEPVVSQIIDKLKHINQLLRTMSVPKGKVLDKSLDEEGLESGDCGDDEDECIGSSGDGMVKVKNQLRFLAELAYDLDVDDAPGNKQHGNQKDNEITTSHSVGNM
Binder,huGPC3 koff (mut/par) [1],muGPC3 koff (mut/par) [2],huGPC3 on cells EC50 (mutant/parent) [3]
"ADX_6077_F02 DG→DA mutant, alkylated (designed binder, C-terminal cysteine alkylated, also called P1-055660) GVSDVPRDLEVVAATPTSLLISWSDDYHAHRYYRITYGETGGNSPVQEFTVPGEHVTATISGLKPGVDYTITVYAVTYDAEKAATDWSISINYRTPC",3.9 ratio mutant/parent,3.7 ratio mutant/parent,1.3 ratio mutant/parent
"ADX_6077_F02 DG→DS mutant, alkylated (designed binder, C-terminal cysteine alkylated, also called P1-055667) GVSDVPRDLEVVAATPTSLLISWSDDYHAHRYYRITYGETGGNSPVQEFTVPGEHVTATISGLKPGVDYTITVYAVTYDSEKAATDWSISINYRTPC",3.5 ratio mutant/parent,3.3 ratio mutant/parent,1.4 ratio mutant/parent
"ADX_6077_F02 DG→AG mutant, alkylated (designed binder, C-terminal cysteine alkylated, also called P1-055669) GVSDVPRDLEVVAATPTSLLISWSDDYHAHRYYRITYGETGGNSPVQEFTVPGEHVTATISGLKPGVDYTITVYAVTYAGEKAATDWSISINYRTPC",5.9 ratio mutant/parent,5.5 ratio mutant/parent,1.1 ratio mutant/parent
"ADX_6077_F02 DG→DV mutant, alkylated (designed binder, C-terminal cysteine alkylated, also called P1-055672) GVSDVPRDLEVVAATPTSLLISWSDDYHAHRYYRITYGETGGNSPVQEFTVPGEHVTATISGLKPGVDYTITVYAVTYDVEKAATDWSISINYRTPC",7.9 ratio mutant/parent,7 ratio mutant/parent,
"ADX_6077_F02 DG→EG mutant, alkylated (designed binder, C-terminal cysteine alkylated, also called P1-055673) GVSDVPRDLEVVAATPTSLLISWSDDYHAHRYYRITYGETGGNSPVQEFTVPGEHVTATISGLKPGVDYTITVYAVTYEGEKAATDWSISINYRTPC",5.4 ratio mutant/parent,5.1 ratio mutant/parent,1.6 ratio mutant/parent
"ADX_6077_F02 DG→DL mutant, alkylated (designed binder, C-terminal cysteine alkylated, also called P1-055671) GVSDVPRDLEVVAATPTSLLISWSDDYHAHRYYRITYGETGGNSPVQEFTVPGEHVTATISGLKPGVDYTITVYAVTYDLEKAATDWSISINYRTPC",3.6 ratio mutant/parent,3.1 ratio mutant/parent,1.7 ratio mutant/parent
"ADX_6077_F02 DG→GG mutant, alkylated (designed binder, C-terminal cysteine alkylated, also called P1-055670) GVSDVPRDLEVVAATPTSLLISWSDDYHAHRYYRITYGETGGNSPVQEFTVPGEHVTATISGLKPGVDYTITVYAVTYGGEKAATDWSISINYRTPC",14 ratio mutant/parent,12 ratio mutant/parent,
"ADX_6077_F02 DG→SG mutant, alkylated (designed binder, C-terminal cysteine alkylated, also called P1-055668) VSDVPRDLEVVAATPTSLLISWSDDYHAHRYYRITYGETGGNSPVQEFTVPGEHVTATISGLKPGVDYTITVYAVTYSGEKAATDWSISINYRTPC",5.2 ratio mutant/parent,4.8 ratio mutant/parent,1.1 ratio mutant/parent
